Data from article PMC10204187, “The effects of nature‐inspired amino acid substitutions on structural and biochemical properties of the E. coli L‐asparaginase EcAIII” (Protein Science : A Publication of the Protein Society, 2023).
Substitutions are numbered along the chain they refer to. Names and notes keep the numbering of the source.

B1: EcAIII (Escherichia coli K-12) (protein)
chain 1: GKAVIAIHGGAGAISRAQMSLQQELRYIEALSAIVETGQKMLEAGESALDVVTEAVRLLEECPLFNAGIGAVFTRDETHELDACVMDGNTLKAGAVAGVSHLRNPVLAARLVMEQSPHVMMIGEGAENFAFARGMERVSPEIFSTSLRYEQLLAARKEGATVLDHSGAPLDEKQKMG
chain 2: TVGAVALDLDGNLAAATSTGGMTNKLPGRVGDSPLVGAGCYANNASVAVSCTGTGEVFIRALAAYDIAALMDYGGLSLAEACERVVMEKLPALGGSGGLIAIDHEGNVALPFNTEGMYRAWGYAGDTPTTGIYREKGDTVATQ
notes: untagged as described; EcAIII gene in pET11d, bacterial expression; precursor autoproteolytically matured to subunits alpha and beta from one gene, (alphabeta)2; purified by DEAE and SEC
B2: EcAIII (Escherichia coli K-12; M200W) (protein)
chain 1: B1 chain 1
chain 2: B1 chain 2 with M22W
notes: as for B1
B3: EcAIII (Escherichia coli K-12; M200K) (protein)
chain 1: B1 chain 1
chain 2: B1 chain 2 with M22K
notes: as for B1
B4: EcAIII (Escherichia coli K-12; M200L) (protein)
chain 1: B1 chain 1
chain 2: B1 chain 2 with M22L
notes: as for B1
B5: EcAIII (Escherichia coli K-12; M200I) (protein)
chain 1: B1 chain 1
chain 2: B1 chain 2 with M22I
notes: as for B1
B6: EcAIII (Escherichia coli K-12; M200T) (protein)
chain 1: B1 chain 1
chain 2: B1 chain 2 with M22T
notes: as for B1

Each molecule was assayed against T1, EcAIII (Escherichia coli, UniProt P37595, M200L) (assay: X-ray crystal structure). Conditions: covalent; beta-acyl-enzyme intermediate on Thr179, chain D.
T1 construct: gene iaaA; untagged as described; EcAIII gene in pET11d, bacterial expression; precursor autoproteolytically matured to subunits alpha and beta from one gene, (alphabeta)2; purified by DEAE and SEC
Assay type: binding

T1 sequence (P37595 179-321 M200L, one chain of several): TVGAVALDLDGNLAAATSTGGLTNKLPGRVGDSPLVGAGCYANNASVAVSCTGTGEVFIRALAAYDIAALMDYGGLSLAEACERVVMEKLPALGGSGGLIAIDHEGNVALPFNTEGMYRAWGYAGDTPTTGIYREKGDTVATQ

| Molecule | X-ray crystal structure |
| --- | --- |
| NC(=O)C[C@H](N)C(=O)O [L-Asn] | in the structure of variant M200L in chain D, we identified an acyl‐enzyme intermediate |

These molecules were tested against T2, EcAIII (Escherichia coli, UniProt P37595, M200T) (assay: X-ray crystal structure). Conditions: M200T#m monoclinic, 1.84 Å; Gly added at 1:1 molar ratio; active site, two of four sites.
T2 construct: gene iaaA; untagged as described; EcAIII gene in pET11d, bacterial expression; precursor autoproteolytically matured to subunits alpha and beta from one gene, (alphabeta)2; purified by DEAE and SEC
Assay type: binding

T2 sequence (P37595 179-321 M200T, one chain of several): as the sequence (P37595 179-321 M200L, one chain of several) above, with L22T counted along it

| Molecule | X-ray crystal structure |
| --- | --- |
| NCC(=O)O [Gly] | In the structure M200T#m, glycine molecules were found in two out of four active sites. |

These molecules were tested on NC(=O)C[C@H](N)C(=O)O (assay: purified protein). Conditions: 20 mM Tris-HCl pH 8.0, 20 °C, L-Asn 0-84 mM.
Assay type: biochemical, Escherichia coli

| Molecule | Km [mM] | kcat [s⁻¹] |
| --- | --- | --- |
| B1 | 22 ± 3 | 501 ± 22.3 |
| B2 | 36 ± 10 | 290 ± 37.3 |
| B3 | 40 ± 9 | 127 ± 11.9 |
| B4 | 37 ± 5 | 195 ± 12.7 |
| B5 | 35 ± 4 | 632 ± 37.9 |
| B6 | 64 ± 6 | 217 ± 10.6 |
